Laboratory results as given in patent publication US20150118710.
Several values for one entry are separate records, joined by “and”; a condition that tells them apart may be missing. Identical values can stand only once.

B1: ΔKex2p, 660 amino acid functional domain of Kexin endoprotease (Kex2p) from Pichia pastoris (protein)
chain: MYLPALRLACWILIGLRSTEALETSEREIFALKLDKSWLPTFLETFQDKFRYERQINGLDDYHVFSHSKNEEFQLENFKVKTLLTRDNANLHSELISHNVDEVHMLRPSHYLHKRAPVVMDKSEELREQIAKDFDIDDPLFAKQWHLFNPRYPGHDVNVSQVWYDGITGKGVVTAIVDDGLDMDSKDLKESFCEEGSWDFNANTRLPKPRLRDDHHGTRCAAEIAAKKGNKYCGVGVAYDSKVSGIRILSDKITPEDEALSLIYGLDVNDIYSCSWGPADNGITMQGPSSLVKEAMLKGVQDGRKGKGALYVFASGNGASSGDNCNFDGYTNSIYSITVGAIDIKGLHPPYAEACSAVMTVTYSSGSGEHIHTTDINDKCSDTHGGTSAAAPLAAGLYSLVYQANPDLTWRDIQWLTVLTAVPVNEQEPGWQKTAIGKMYSHKYGYGKIDAYALVNLARSPDFPYLKPQSWIYGTEVHESLNTSEANGVLTSKYELTQEAKDLMNFEKIEHVTVTVDIKAAERGKVLVELISPSGVVSELAPYRRMDKDKEGFPNWTFMSVAHWGEDGLGEWILKITNKEGNSVVLNSWQIKFFGESQDPEKAEKFSLTKKYDEILVNPPSSSTSTTVDTSSTEATFSSSSVSEASATETDVKETSTTGD

Assays:
[1] = test system: Insulin glargine single chain precursor (Fglargine), glargine pro-peptide
[2] = target: Insulin glargine single chain precursor (Fglargine), glargine pro-peptide; remark: listed apart in the source

Molecule | % conversion achieved (HPLC peak areas) [1] | % yield increased (two chain glargine), clone without co-expression [1] | secretion of two chain glargine (mass analysis of secreted product) [1] | % conversion achieved (HPLC peak areas), Clone #2F6, GAP promoter [2] | % conversion achieved (HPLC peak areas), Clone #3C1, GAP promoter [2] | % conversion achieved (HPLC peak areas), Clone #4B7, GAP promoter [2] | % conversion achieved (HPLC peak areas), Clone #5C5, GAP promoter [2] | % conversion achieved (HPLC peak areas), Clone #IB4, GAP promoter [2] | % conversion achieved (HPLC peak areas), Clone# 6D6, GAP promoter [2] | % yield increased (two chain glargine), FLD1 promoter [2] | % yield increased (two chain glargine), GAP promoter [2]
endogenous Kex2p (Kexin endoprotease) of Pichia pastoris | 0% | 5% and 0% | it is not possible to secrete two chain glargine directly into the medium using endogenous Kex2p alone |  |  |  |  |  |  |  | 
B1 |  |  |  | 9.44% | 31.4% | 33.6% | 45% | 13% | 59.5% | > 93% | 60%
